Assay in all cases: MST
Test [1] addresses Cy5-G-actin (UniProt P68135).
Test [2] deals with T1, GFP-CD2AP-1-335 aa (human, UniProt Q9Y5K6 1-335).
T1 sequence (looked up): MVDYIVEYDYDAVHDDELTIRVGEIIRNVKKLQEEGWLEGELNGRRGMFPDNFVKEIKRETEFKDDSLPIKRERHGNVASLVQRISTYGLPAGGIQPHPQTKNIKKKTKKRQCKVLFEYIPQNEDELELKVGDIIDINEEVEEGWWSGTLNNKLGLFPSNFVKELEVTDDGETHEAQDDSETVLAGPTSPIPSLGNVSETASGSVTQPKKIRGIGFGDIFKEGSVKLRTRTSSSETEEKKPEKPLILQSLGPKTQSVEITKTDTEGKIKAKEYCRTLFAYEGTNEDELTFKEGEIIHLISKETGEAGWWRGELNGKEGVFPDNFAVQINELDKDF

In test [3] the target is T2, GFP-CD2AP-1–475 aa (human, UniProt Q9Y5K6 1-475).
T2 sequence (looked up): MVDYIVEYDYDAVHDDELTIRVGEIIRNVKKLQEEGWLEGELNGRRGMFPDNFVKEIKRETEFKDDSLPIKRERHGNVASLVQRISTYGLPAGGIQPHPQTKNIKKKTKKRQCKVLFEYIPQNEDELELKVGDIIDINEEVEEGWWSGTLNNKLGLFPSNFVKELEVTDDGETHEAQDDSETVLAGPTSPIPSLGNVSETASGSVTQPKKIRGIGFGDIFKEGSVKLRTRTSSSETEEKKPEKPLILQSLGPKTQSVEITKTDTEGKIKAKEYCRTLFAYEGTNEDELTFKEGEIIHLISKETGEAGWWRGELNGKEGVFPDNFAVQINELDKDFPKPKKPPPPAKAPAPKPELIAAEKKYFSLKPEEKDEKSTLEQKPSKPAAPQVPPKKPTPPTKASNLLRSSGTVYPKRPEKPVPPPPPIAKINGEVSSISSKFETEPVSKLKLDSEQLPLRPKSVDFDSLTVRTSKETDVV

What is called Kd is a measure of binding affinity in units of concentration. Low values mean a tighter complex, high ones a looser complex. In test [1], “profilin (from UniProt P07737 1-140) (natural protein)” had a Kd of 150 nM.

B1: PI3K p85α 1–315 aa (domain or fragment, human, UniProt P27986 1-315, looked up)
chain: MSAEGYQYRALYDYKKEREEDIDLHLGDILTVNKGSLVALGFSDGQEARPEEIGWLNGYNETTGERGDFPGTYVEYIGRKKISPPTPKPRPPRPLPVAPGSSKTEADVEQQALTLPDLAEQFAPPDIAPPLLIKLVEAIEKKGLECSTLYRTQSSSNLAELRQLLDCDTPSVDLEMIDVHVLADAFKRYLLDLPNPVIPAAVYSEMISLAPEVQSSEEYIQLLKKLIRSPSIPHQYWLTLQYLLKHFFKLSQTSSKNLLNARVLSEIFSPMLFRFSAASSDNTENLIKVIEILISTEWNERQPAPALPPKPPKPT
As to B1, the figures for the Kd in test [2] and in test [3] were 350 nM and 940 nM, respectively.

For the origin of these results see article PMC7039212 (The Journal of Cell Biology, 2019).
